# Data taken from the DeepSol protein solubility set.
# Experiment: soluble on expression in E. coli; label from the status in PepcDB or PDB records
row,Sequence,soluble on expression in E. coli
1,MKKKIAEYEVGEQVDIFLLIKTATKGIASNGKPFLTVILQDPSGDIEAKLWDVSPEVEKQYVAETIVKVAGDILNYKGRIQLRVKQIRVANENEVTDISDFVEKAPVKKEDMVEKITQYIFEMRNPNIQRLTRHLLNKHQNEFLDYPAATKNHHEFVSGLAYHVVSMLDLAKAISNLYPSLDKDLLYAGVILHDLGKVIELSGPISTTYTLEGNLLGHISIMVNEIGKAADELQIDAEEVLILQHIVLSHHGKAEWGSPKPPLVKEAEILHYIDNLDAKMNMMDRALGRTKPGEYTERVFALDNRSFYKPSFHN,not soluble
2,RPLKRDKPAARTLKDNWLRTEREERLWQALRVWRMKQAEAEGIPAYMIFGDKTLRDLVEKMPQDLNGLHDIYGLGEAKIDRFGHGILEVCRNAAGFSRDAVIRPQTEREQQLRQKLEAWRYEQARAENCALHAVLSDESLADMLADTPETETDLEGVYGLGSVRAAKYGRDILAVCRPFSDGIDETAKRKRRLMRALIQWCGETAKHEQSEPYRILSKAALRAIAAKQPEGLAELAAVYGVGEEKAARYGAAVLAVLERNAV,not soluble
3,MNKTELIKNVAQNAEISQKEATVVVQTVVESITNTLAAGEKVQLIGFGTFEVRERAARTGRNPQTGEEMQIAASKVPAFKAGKELKEAVK,soluble
4,MYKATVIIKLKKGVLNPEGRTIQRALNFLGFNNVKEVQTYKMIDIIMEGENEEKVKEEVEEMCKKLLANPVIHDYEIKVEKIE,soluble
5,MAHHHHHHMNEEILKNIKVNNNFLEFEEIIKDINTPFNFIDLVEIPCVPVVDLYGLSLLNNEAYLEYKSGLREDKLNADDEIKLTLFFAVKLYKKNIIRIKFPSYYDIIETLKFDPVSVTIGLFNQFYFETAYELCNLLPINEWPSTNFYDILRKAEKTRIHFLINNKTKLNSYFLEGLTNKEKKIYKYFLEGTSKEREKLNKETTLFHFYEKEKC,not soluble
6,MKTFEVMIQTDSKGYLDAKFGGNAPKAFLNSNGLPTYSPKISWQKVEGAQSYALELIDHDAQKVCGMPFVHWVVGNIAHNVLEENASMMDKRIVQGVNSLTQGFIRSPLNESEKQRSNLNNSVYIGPMPPNGDHHYLIQVYALDIPKLALKAPFFLGDLHDKMRNHIIAIGRKEFLYKQFVRK,soluble
7,MTKSETTLSKLLVESELVQECEELLSSLPRDRSVFAEYLYQYQGFWYPPNLLEGVLYSQKHFQARDSDIVLASIPKSGTTWLKSLVFALIHRQEFQTPLVSHPLLDNNPHTLVTFIEGFHLHTQDTSPRIFSTHIPVGSLPESVKDSSCKVVYCCRNPKDAFVSLWHFMKNLIVKEMVGCTMEEMVRFFCRGSSIYGPFWDHVLQYWKESRENPKKVMFVMYEEMREQPQEWVMRIAEFLGYSFTEEEIENGVLEDIIKLCSLENLSKLEVNEKGKLLNGMETKAFFRKGEIGGWRDTLTPLLAEEIDKTTKEKLIGSDFRFFC,soluble
8,MDRISGLPDEVLVKILSFVPTKVAVSTSILSKRWEFLWMWLTKLKFGSKRYSESEFKRLQCFLDRNLPLHRAPVIESFRLVLSDSHFKPEDIRMWVVVAVSRYIRELKIYSSHYGEKQNILPSSLYTCKSLVILKLDGGVLLDVPRMVCLPSLKTLELKGVRYFKQGSLQRLLCNCPVLEDLVVNLSHHDNMGKLTVIVPSLQRLSLSTPSSREFVIDTPSLLSFQLVDRNDNSHTFLIENMPKLREAYINVPFADIKSLIGSITSVKRLAISSEVGYGEGFIFNHLEELTLWNKYSSNLLVWFLKNSPNLRELMLVSETDVSFFH,soluble
9,MKIRSTALVKGFRQSTPYVNAHRGKTMVIMLGGEAVAHNNFGNIINDIALMHSLGIKVVVVYGARPQINQLLEKQDLTTPYHKNIRITDEAALSVVMQAAGQLQLAITARLSMSLNNTPMAGTQLNVVSGNFVIAQPLGVDDGVDYCHSGRIRRIDTDAINRTLDQGSIVLLGPIASSVTGECFNLLSEEVATQLAIKLGADKLIGFCSEQGVIDDNGNAVAELLPIEAEHVIKTLSENHASDSDYNTGTLRFLKGSIAACRAGVPRSHLISYKVDGALIQELFSFDGIGTQVVMASAEQVRQAGIDDIGGILELIHPLEEQGILVRRSREQLEQEIGKFTIIEKDGLIIGCAALYPYSEERKAEMACVAIHPDYRDGNRGLLLLNYMKHRSKSENINQIFVLTTHSLHWFREQGFYEVGVDYLPGAKQGLYNFQRKSKILALDL,not soluble
10,MKRSSTVLAALLALLLVATNDAARHRKYRQTYQDIDSDDDDTSDVQITVFPSEKEVRDGRDVSFECRARTSDNSVYPTVRWARVGGPLPSSAHDSGGRLTINPVQLSDAGTYICVSDYNGNTVEARATLSVVSYGPQEVSNGLRQAGQCMADEKACGNNECVKNDYVCDGEPDCRDRSDEANCPAISRTCEPNEFKCNNNKCVQKMWLCDGDDDCGDNSDELNCNAKPSSSDCKPTEFQCHDRRQCVPSSFHCDGTNDCHDGSDEVGCVQPTVVDPPQTNLQVPRGTTFSLTCKAVAVPEPYINWRLNWGPVCEPPRCLQTSEGGYGTLTIHDAQPVDQGAYTCEAINVKGRVLATPDCIVRVVDDPRPQPPQPPTAPPQRASCDTRGAVTPYPNNYGTCECKSQVTGPNCDQCKPGAFHLSEKSPEGCLKCFCFGVSNDCRSSGHYRTKDRLMFAGDAEGVTISDIEERTIDRNTPFSFFKTGYLTFDGTTDGVAKYWRLPQRFLGDKVTAYGGKMEFEIEFSGSGHHSSEPMVVLKGNQNILVHRVRNQEHVLRSDSPVRITVETYETNYEQLNGAAATREDLLMVLADLDAFLIRATHVAHQTSTSLGDVSWEIAVDRYTPDGLALEVEQCVCPPGYLGTSCEDCAPGYERSGYGPYLGTCVPIQPRHQQCGPGAVAPTAPAQGQCQCKASVIGPNCDRCAPNSFGLAPTNPQGCIPCFCSGVTQQCSASSYRRTSVSIDYARGDRDQLELTTSDSRQPYSPQTRAELSGQAIEFRSFEEARGQTLYWKLPEKFLGDKVTSYGGTLEYTFKFSGNGNSDQSADVILRGNDIALQYKHREPFYADRENKVQIKIIETSWQRVDGQQATREHLLMTLADLDTLLIKSTYNDDCTDSQLLSANLEFAEPYGQGLTAAEVEQCICPPGYVGTSCEDCAPGYSRTGGGLYLGLCEKCECNGHASQCDKEYGYCLDCQHNTEGDQCERCKPGFVGDARRGTPNDCQPEATRAPCHCNNHSPRGCDSFGRCLLCEHNTEGTHCERCKKGYYGDATKGSPYDCTPCPCPGASDCYLDNEGQVACRICPAGLQGRLCNECAPGYTRSNKPAGRVCEPIGQVTNEDITFVQKPHEGDFARNSPSQNSSGQRRHRRRRIRVRSRFYHH,not soluble
11,MSLFFHSDVLSVSELNAFAKSLLENHLAGLWIAGEVSNLTRAASGHYYFSLKDSRAQVRCAMFKGAAVRLAKPLKEGDHIEVSGKISIYEARGEFQITVNEVRLKGLGQLYEAYERLKAQLQAEGAFAAERKKPLPVRPQCIGIVTSLAAAALRDVVTTLKRRAPEIPVIVYPTPVQGAGSELQIAQAIKTASQRAECDVLIVCRGGGSIEDLWAFNEEPVVRAIESCTVPVVSGVGHETDFTLADFVADMRAPTPTGAAELVSPNRQESLHRLAQAQCRLKTVLEQRYFDASQKLDWLARQIRHPRQKLDEQRASIGKLAQTLSYSMTQNVRTHTARFERQTQALKHCRPDVSVCKKNIDRFQTALSHAFHQLLTHRRQSLTAQAALLEAVSPQHILERGFSVVKNTRGQVIRNADVLKQGQKLHIIFADGETDVRVSKEQGQQDLFDCIEGHHHHHH,not soluble
12,METRRAERINKLIQALKRSDKIHLKDAANLLRVSEMTIRRDLSAEPTSVILLGGYVVMDPKSNNANNYFVSDQQAKQVEEKRRIGQLAAQLIIENDTVFFDCGTTIPWIIDEIDEELAFTAICYSLNTFLALQDKPNCKVILCGGEFKPNNCIFTPLSQQSELDNICPNKAFISAAGVSIEYGATCFNFDEILLKHRAMAKSQYKILVADHSKFGKIKPASIGTLAQFDALVTDRPPVAEFYLFFSQHSVKIYC,not soluble
13,KMLDEKFYSKLLGEELDLIICLPPDFSPLYKYPLFIVQDGKDYFQFGKLARHSEELAVNEQIQKAIFIGIPYKTVMDRREKYHPDGEQNEAYIRFLAFELVPYLEERFPSFQMPTSRFL,not soluble
14,GKDWMISAKGTFTFARNILDEVFETEATFNNPNRRRTGRPDGTMFGYNALGYFTYDDFNPDGSLKAGIATQPWGQVYPGDLRYEDLSGPNGVPDGKIDEHDQTVIGFSNWAPEIIFGLAPTVQWKNFDLNALIQGATRTSISLGETLVMPFFDSGSATKLQFSDHWTPDNTNAPYPRLTSEVTVNNHRQPSSWWVRDATYIRLKSIEIGYTLPRSALNFIGISSARVYASGQNLWTWTPFMKELIDPEAKSANGKYYMQQAVYAFGLNITF,not soluble
15,GSPGLKGDKGIPGDKGAKGESGLPDVASLRQQVEALQGQVQHLQAAFSQYKKVELFPNGQSVGEKIFKTAGFVKPFTEAQLLCTQAGGQLASPRSAAENAALQQLVVAKNEAAFLSMTDSKTEGKFTYPTGESLVYSNWAPGEPNDDGGSEDCVEIFTNGKWNDRACGEKRLVVCEF,soluble
16,MPGSPRPAPSWVLLLRLLALLRPPGLGEACSCAPAHPQQHICHSALVIRAKISSEKVVPASADPADTEKMLRYEIKQIKMFKGFEKVKDVQYIYTPFDSSLCGVKLEANSQKQYLLTGQVLSDGKVFIHLCNYIEPWEDLSLVQRESLNHHYHLNCGCQITTCYTVPCTISAPNECLWTDWLLERKLYGYQAQHYVCMKHVDGTCSWYRGHLPLRKEFVDIVQP,soluble
17,GPGSMEEGVDLREGLPEDVLAAVIAAPGQVTVEEARAQLNSSTSFRVDAGLVHLTADGAREQSQMETMLLKLATKIPPTGVSGAQFRAILEDEAPHFQPSAVGALSLKEAVQRYPRLFDVETDTTGKWFVRPAGVGKDGRASVGKNSGPISIINFCSERALMGNQADYVPLHVAMREESVASEGVLRDLVDSEELSKQLQIRFSVRLRPKRPVTNAFCFVDGDEIGLEAVDAIWKEMNLSDKSTRLVARQPTSRKHNSSDIVAPADMPTYAVVERKARELSLTQSVVLQDVIYMCSLRQFSLYADHIAKLNAFPDADVYVCCPSKVKLVAQKQFVPL,not soluble
18,MLARLLLSFSVVLTAFGVGAAEVDKTQPYQMMKQVAEVTFARLKAEQPKIKQDPNLLKVIVEQELMPYVNDRYAALKLLGPNLKGAKREDVLEFVDAFRAYLIASYAQVLTQYSDQQIEFGPEPKLDDSKRITSIKVEIIDAPRPNIKLEFKLRKDNKTDEWEAFDMVAEGISLLSSKQSEWNTKIRQDGILAVAQDLEKLAAEPIRFEAKK,soluble
19,MKTQHVVVVGAGMGGLAAAIDLASRGLRVTVLERSPSPGGKMREIAVGGARLDAGPTVFTMRWVFEELFADAGASLGESLRLRAAEVLARHTWGDGAPFDLFADAARSTEAVGELAGAAEAKRFVAFCARARGIWQALEGPFIRGQRPSPGELVRRSGLSGLSGLARISPFTLLWKALGEHFHDPRLRQLFGRYATYCGSSPFLAPATLMLVAHVEQQGVWMVDGGMHQIARAMADLATAKGATFRYSTTAESVLVENGKVGGLILQGGERLAADIVLINGDAAALAARCFGPQVAAAVPPVPPTARSLSAVTWGLLAEAEGFPLLRHSVFFGNDYPGEFRDIFTHGRLPSSPTVYVCAQDRGDKAPTVGPSGPRPERLLVLVNAPARGDLSFPDAMELDTCTARTFAFLERCGLTLRRTPEATRVTTPADFNSLFPATGGALYGRASHGWSATFDRPGAKTAMPGLYLAGGSVHPGPGVPMAALSGRLAAQAVLADLTSRGRLEHHHHHH,not soluble
